Measured values from publication PMC5566378 (2017).

B1: human IL-17RC extracellular domain (receptor)
chain: LERLVGPQDATHCSPGLSCRLWDSDILCLPGDIVPAPGPVLAPTHLQTELVLRCQKETDCDLCLRVAVHLAVHGHWEEPEDEEKFGGAADSGVEEPRNASLQAQVVLSFQAYPTARCVLLEVQVPAALVQFGQSVGSVVYDCFEAALGSEVRIWSYTQPRYEKELNHTQQLPDCRGLEVWNSIPSCWALPWLNVSADGDNVHLVLNVSEEQHFGLSLYWNQVQGPPKPRWHKNLTGPQIITLNHTDLVPCLCIQVWPLEPDSVRTNICPFREDPRAHQNLWQAARLQLLTLQSWLLDAPCSLPAEAALCWRAPGGDPCQPLVPPLSWENVTVDKVLEFPLLKGHPNLCVQVNSSEKLQLQECLWADSLGPLKDDVLLLETRGPQDNRSLCALEPSGCTSLPSKASTRAARLGEYLLQDLQSGQCLQLWDDDLGALWACPMDKYIHKR
B2: human IL-17F homodimer (ligand)
chain: RKIPKVGHTFFQKPESCPPVPGGSMKLDIGIINENQRVSMSRNIESRSTSPWNYTVTWDPNRYPSEVVQAQCRNLGCINAQGKEDISMNSVPIQQETLVVRRKHQGCSVSFQLEKVLVTVGCTCVTPVIHHVQ

What was measured:
[1] = biological target: human IL-17A/F heterodimer, Arg77 to alanine mutant (F-chain) (human, UniProt Q16552 24-155; Q96PD4 31-163, R77A); test: SPR
[2] = biological target: B1; test: SPR

Kd [1] [nM] | Kd [2] [nM] | Binder
5.4 | – | B1
– | 3.5 | B2
